# Source: patent publication US12648572B2, “Proteolytically stable U1-agatoxin-Ta1b variant polypeptides for pest control” (Vestaron Corporation, priority 2020, dated 2026)
# Several values for one entry are separate records, joined by “and”; a condition that tells them apart may be missing. Equal values may be shown once.
# Assays:
# [1] = target: T1, bovine trypsin (Bos taurus, UniProt P00760); experiment: Bovine trypsin digest of TVPs; format: in vitro ADME; settings: for Half Life (min) Bovine Trypsin: 1 mg/mL TVP, 0.1 mg/mL bovine trypsin, 50 mM Tris-HCl pH 8.8; for Trypsin digestion, in words: alanine scan of basic amino acids; for Fold Change (Trypsin): half life relative to WT Ta1b
# T1 sequence (P00760 24-246): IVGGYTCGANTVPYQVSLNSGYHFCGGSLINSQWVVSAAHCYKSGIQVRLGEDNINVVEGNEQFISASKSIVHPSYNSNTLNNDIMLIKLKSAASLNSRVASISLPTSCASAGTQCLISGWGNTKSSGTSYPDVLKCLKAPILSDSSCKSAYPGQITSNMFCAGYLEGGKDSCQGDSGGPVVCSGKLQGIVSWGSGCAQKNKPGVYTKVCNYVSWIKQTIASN
# Protocol: (§1) To determine the stability of TVPs when exposed to lepidopteran gut proteases. Briefly, 5th instar Manduca sexta were dissected by making a small incision to the intestinal lining such that gut contents could be collected in a tube. Multiple dissections were pooled and kept on ice for immediate use, or stored at −80° C. for future use. The isolated midgut (referred to hereinafter as Manduca Gut Extract, or MGE) was then for digest assays. Next, 1 mg/mL TVP was incubated with 0.1 mg/mL bovine trypsin, or 1/10 diluted MGE with 50 mM Tris-HCl, pH 8.8 to maintain alkaline pH. Time points were taken and the digest quenched with the addition of 200 mM HCl. Degradation was quantified by HPLC analysis and rates were determined by fit to a single exponential decay.
# Lepidopteran gut contains trypsin-like proteases that cut after Arg or Lys amino acids; without wishing to be bound by any particular theory, we hypothesized that singly mutating these amino acids to alanine could identify the site(s) that are causing degradation in lepidopteran gut. To test the foregoing hypothesis, TVPs were created by individually mutating each basic amino acid to alanine present in the wild-type Ta1b amino acid sequence. Next, the stability of each of these TVPs was assessed by confronting the TVPs with the digestion conditions as described above.
# [2] = test system: corn earworm (Helicoverpa zea); experiment: Corn earworm injection assay; format: in vivo; settings: fourth instar larvae, 24 hours after injection; ± standard error of the mean
# Protocol: First, WT Ta1b (WT) and the R9Q mutant of Ta1b (TVP-R9Q) were evaluated in a lepidopteran injection assay. The experimental unit consisted of 8 injected individual corn earworm (Helicoverpa zea) per peptide dose. There were four experimental replicates per peptide. Prior to injection, corn earworm larvae were reared to their fourth instar on standard lepidoptera diet. The larvae were weighed to determine accurate dose calculations. The exact doses varied slightly between replicates because of variations in corn earworm larvae mass, but the approximate doses injected were: 1000, 2000, 4000, and 8000 pmol/g. Injections were performed using a hand microapplicator and a syringe fitted with a 30 gauge needle. Larvae were injected at the base of one of their most posterior prolegs. Larvae were injected with 1 μL of treatment solution.
# After injection, larvae were placed in a well of a 32-well tray filled with 5 mL of standard lepidoptera diet. The trays were then placed in a 28° C. Incubator. The condition of the larvae were evaluated 24 hours after injection.
# [3] = test system: Manduca Gut Extract (MGE); experiment: Manduca Gut Extract (MGE) digest of TVPs; format: in vitro ADME, Manduca sexta; settings: for Half Life (min) Manduca Gut Extract (MGE): 1 mg/mL TVP, 1/10 diluted MGE, 50 mM Tris-HCl pH 8.8; for Fold Change (MGE): half life relative to WT Ta1b; for Fold Stability Improvement: in the presence of MGE, relative to Ta1b
# Protocol: as §1
# (§2) TVPs were assessed for stability in the presence of MGE (as described above). Activity was assessed by injection into houseflies (Musca domestica): […] intrathoracically into houseflies with an average mass of 18 mg. The dose required for 50% knockdown and mortality was determined at 24 hour post-injection.
# [4] = test system: neonate corn earworm (Helicoverpa zea); experiment: Corn earworm oral foliar bioassay; format: in vivo; settings: sprayed lettuce leaf discs, fourth day, ± standard error of the mean
# Protocol: In the oral foliar bioassay, the experimental unit consisted of 12 leaf discs (per peptide concentration) sprayed (front and back) with a total spray volume of 5.5 mL (2.75 mL for each side) on which neonate corn earworm (Helicoverpa zea) were allowed to feed. There were four experimental replicates per peptide.
# Romaine lettuce was cut into 30 mm diameter disks, and then sterilized using a 140 ppm bleach solution; the disks were then triple rinsed in water. The romaine lettuce disks were then pinned to a Styrofoam board and sprayed with a given treatment; the disks were flipped, sprayed again, allowed to dry, and placed in the arena.
# The arena was 32-well rearing tray containing 5 mL of 1% agar. One romaine lettuce disk was placed in each well, with a single first instar corn earworm (Helicoverpa zea) per leaf disk. The trays were then placed in a 28° C. Incubator.
# Mortality of the corn earworms was evaluated on the fourth day after spraying and larvae application to the leaf discs. Larvae were scored as either alive (moving and feeding normally) or dead (immobile, discolored).
# [5] = test system: houseflies (Musca domestica); experiment: Housefly injection assay; format: in vivo; settings: for Fly KD50: dose for 50% knockdown, 24 hours post-injection; for Activity relative to wild-type Ta1b, in words: housefly injection; for Fold Activity Reduction: housefly intrathoracic injection, 24 hour post-injection, relative to wild-type Ta1b
# Protocol: as §2
# Activity of the TVPs identified in the mutant stability assay were assessed by injection into houseflies (Musca domestica). Wild-type Ta1b and the TVPs with amino acid substitutions at positions R9Q and R9N were injected intrathoracically into houseflies with an average mass of 18 mg, at an injection dose of 0.5 μL of toxin or control. The dose of TVP required for 50% knockdown (KD50) was then determined at 24-hours post-injection. […] FIG. 2.
# The TVPs: (1) TVP-R9Q; (2) TVP-R9QΔG; (3) TVP-R9Q/T43A/ΔG; (4) TVP-R9Q/T43A; and (5) TVP-R9Q/T43A/ΔK-G, were analyzed in a housefly injection assay. Housefly injections were performed as previously described herein.
# [6] = test system: Helicoverpa gut extract (HGE); experiment: Helicoverpa gut extract (HGE) digest, position 9 scan; format: in vitro ADME, Helicoverpa zea; settings: for Half-Life: 30 mM Tris-HCl pH 8.8, time points 0, 3, 22.5 hours
# Protocol: To determine the stability of TVPs when exposed to lepidopteran gut proteases, early fifth instar Helicoverpa zea larvae were dissected to remove the intact digestive tract from other tissues and hemolymph. To obtain the Helicoverpa gut extract (HGE), a small incision was made to the intestinal lining such that gut contents could be collected in a tube. Multiple dissections were pooled and kept on ice for immediate use, or stored at −80° C. for future use.
# Wild-type Ta1b (SEQ ID NO: 1) was used as a template, and mutated at amino acid substitution at position 9, (i.e., R9; SEQ ID NO: 1) to produce the TVPs evaluated here; these TVPs have a substitution of the arginine at position 9 (i.e., R9) of the wild-type amino acid sequence (SEQ ID NO: 1), with one of the amino acids F, P, Y, K, W, H, A, G, N, L, D, V, M, I, Q, C, E, T, and S; in addition, a TVP with an R9Q+T43A mutation (relative to wild-type Ta1b) was likewise evaluated (SEQ ID NO: 85).
# The TVPs described above and shown in Table 19 were confronted with Helicoverpa gut extract (HGE) to simulate digestion in the lepidopteran gut environment. Here, the TVPs were incubated with 6× diluted amount of HGE obtained from Helicoverpa deep well cell growths. The 6× diluted UGE was supplemented with 30 mM Tris-HCl, pH 8.8, to maintain the alkaline pH of the Helicoverpa gut environment.
# Samples of the digested TVPs were collected at time points of 0, 3, and 22.5 hours. To quench the digestion process, 30 mM Glycine, pH 2.0 was added to the samples, and the samples of the digested TVPs were immediately analyzed using reverse-phase HPLC to quantify the TVP peak area.
Substance,Half Life (min) Bovine Trypsin [1] [min],Fold Stability Improvement [3] [fold],"Activity relative to wild-type Ta1b, in words [5]",Fold Activity Reduction [5],also measured
"EPDEICRARMTNKEFTYKSNVCNNCGDQVAACEAECFRNDVYTACHEAQKG (listed as Eratigena agrestis) [WT Ta1b, reference compound]",288,–,–,–,Injection LD50 [2]: 2933 ± 827 pmol/g; Half Life (min) Manduca Gut Extract (MGE) [3]: 1.5 min; Oral Bioassay % Mortality at 3 ppt [4]: 6 ± 3%; Fly KD50 [5]: 167 pmol/g; Half-Life ([6]; 6× diluted HGE): 1.9 h
R38A: TVP: wild-type Ta1b with basic amino acid R38 mutated to alanine (EPDEICRARMTNKEFTYKSNVCNNCGDQVAACEAECFANDVYTACHEAQKG; listed as Eratigena agrestis),1860,8.6,did not show any reduction in activity,1.0 fold,"Trypsin digestion, in words [1]: modest, albeit significant reduction in digestibility; Fold Change (Trypsin) [1]: 6.5 fold; Half Life (min) Manduca Gut Extract (MGE) [3]: 19 min; Fold Change (MGE) [3]: 8.6 fold"
T11P: TVP with substitution T11P (EPDEICRARMPNKEFTYKSNVCNNCGDQVAACEAECFRNDVYTACHEAQKG; listed as Eratigena agrestis),–,92.9,maintain activity similar to the native Ta1b,1.4 fold,"Digestibility by Manduca Gut Extract (MGE), in words [3]: significant reduction in digestibility"
A8S: TVP with substitution A8S (EPDEICRSRMTNKEFTYKSNVCNNCGDQVAACEAECFRNDVYTACHEAQKG; listed as Eratigena agrestis),–,12.1,maintain activity similar to the native Ta1b,1.3 fold,"Digestibility by Manduca Gut Extract (MGE), in words [3]: significant reduction in digestibility"
EPDEICRAHMTNKEFTYKSNVCNNCGDQVAACEAECFRNDVYTACHEAQKG (TVP-R9H),–,16.2,–,2.5 fold,–
EPDEICRAAMTNKEFTYKSNVCNNCGDQVAACEAECFRNDVYTACHEAQKG (TVP-R9A),>6000,247,–,9 fold and 8.7 fold,"Trypsin digestion, in words [1]: completely abolished trypsin digestion; Fold Change (Trypsin) [1]: >20 fold; Half Life (min) Manduca Gut Extract (MGE) [3]: 370 min; Fold Change (MGE) [3]: 247 fold"
TVP-R9Q/ΔG: TVP-R9Q with the C-terminal glycine removed (EPDEICRAQMTNKEFTYKSNVCNNCGDQVAACEAECFRNDVYTACHEAQK; C-terminal Gly deleted; TVP-R9QdG),–,–,–,–,Fly KD50 [5]: 136 pmol/g
A8N: TVP with substitution A8N (EPDEICRNRMTNKEFTYKSNVCNNCGDQVAACEAECFRNDVYTACHEAQKG; listed as Eratigena agrestis),–,1.8,–,–,–
EPDEICRATMTNKEFTYKSNVCNNCGDQVAACEAECFRNDVYTACHEAQKG (TVP-R9T) [T (Position 9)],–,–,–,–,"Result (Stable/Unstable) ([6]; 6× diluted HGE): Stable; Half-Life ([6]; 6× diluted HGE): 95.8 h; Gut extract digestion, in words ([6]; 6× diluted gut extract, relative to wild type Ta1b): completely abolished UGE digestion"
EPDEICRANMTNKEFTYKSNVCNNCGDQVAACEAECFRNDVYTACHEAQKG (TVP-R9N),–,>50,maintain activity similar to the native Ta1b,1.5 fold,"Digestibility by Manduca Gut Extract (MGE), in words [3]: significant reduction in digestibility"
EPDEICRAEMTNKEFTYKSNVCNNCGDQVAACEAECFRNDVYTACHEAQKG (TVP-R9E),–,–,–,>10 fold,–
K18A: TVP: wild-type Ta1b with basic amino acid K18 mutated to alanine (EPDEICRARMTNKEFTYASNVCNNCGDQVAACEAECFRNDVYTACHEAQKG; listed as Eratigena agrestis),1194,–,–,–,"Trypsin digestion, in words [1]: modest, albeit significant reduction in digestibility; Fold Change (Trypsin) [1]: 4.1 fold"
